Results: patent US20250066745A1, “MUTANTS AND USE THEREOF” (BGI SHENZHEN, priority 2021, published 2025)

Assays:
Assay type in all cases: biochemical
[1] = Luminescence activity assay of purified Gaussia luciferase mutants on coelenterazine; design: key to Activity of mutant relative to wild-type Gaussia luciferase without the signal peptide: ratio of mutant luminescence intensity to wild-type Gaussia luciferase; settings: for Activity of mutant relative to wild-type Gaussia luciferase without the signal peptide: Substrate CTZ (Table 16)
How it was run: (§1)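 Readout: luminescence intensity, as ratio to signal-peptide-free wild-type enzyme. Enzyme 1 μg/mL, substrate 100 μM stock, 10 μL + 90 μL; buffer 50 mM Tris-HCl pH 8.0, 100 mM NaCl, 0.1% Tween-20.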

[2] = Substrate specificity test of combinatorial mutants: activity on coelenterazine derivative ZS26
Procedure: In this Example, the protein concentration was determined with a BCA quantitative kit (Thermo Scientific™ Pierce™ BCA Protein Assay Kit) accurately. The purified luciferase obtained in Example 5 was diluted with diluent (50 mM Tris-HCl, pH 8.0, 100 mM NaCl, 0.1% (v/v) Tween-20) to 1 μg/mL. The diluted luciferase, taken for 10 μL, was moved into a black 96-well plate, then added with 90 μL of the substrates coelenterazine, fluoro-coelenterazine or coelenterazine derivative ZS2 (purchased from Biolab) which was diluted into 100 μM with the same diluent, and the luminescence intensity of the plate was read with a self-luminescence module of a microplate reader. The mutation site of the mutant, the measured luminescence intensity, the ratio of luminescence intensities of the advantageous mutants to the wild-type Gaussia luciferase without the signal peptide having the sequence shown in SEQ ID NO: 3 are shown in Table 15. The results of catalytic activity assay of the advantageous mutants relative to the wild-type Gaussia luciferase without the signal peptide having the sequence shown in SEQ ID NO: 3 on substrate coelenterazine are shown in FIG. 6. […] The results of catalytic activity assay of the advantageous mutants relative to the wild-type Gaussia luciferase without the signal peptide having the sequence shown in SEQ ID NO: 3 on substrate fluoro-coelenterazine are shown in FIG. 7.
The new mutant library constructed in Example 7 was screened and tested for substrate specificity. Expression and purification schemes were the same as that in Example 5, and the activity assay scheme was the same as that in Example 6. The respective catalytic activities of combinatorial mutants on coelenterazine, fluoro-coelenterazine or coelenterazine derivative ZS2, and coelenterazine derivative ZS26 (purchased from BIOLAB) were assayed, and comparisons among the substrate specificities of the combinatorial mutants were based on the ratios of catalytic activities on two corresponding substrates.

[3] = Luminescence activity assay of purified Gaussia luciferase mutants on coelenterazine derivative ZS2; design: key to Activity of mutant relative to wild-type Gaussia luciferase without the signal peptide: ratio of mutant luminescence intensity to wild-type Gaussia luciferase; settings: for Activity of mutant relative to wild-type Gaussia luciferase without the signal peptide: Substrate ZS2 (Table 16)
How it was run: as §1

[4] = Luminescence activity assay of purified Gaussia luciferase mutants on fluoro-coelenterazine; design: key to Activity of mutant relative to wild-type Gaussia luciferase without the signal peptide: ratio of mutant luminescence intensity to wild-type Gaussia luciferase; settings: for Activity of mutant relative to wild-type Gaussia luciferase without the signal peptide: Substrate f-CTZ (Table 16)
How it was run: as §1

Molecule	Activity of mutant relative to wild-type Gaussia luciferase without the signal peptide [1]	Activity of mutant relative to wild-type Gaussia luciferase without the signal peptide [3]	Activity of mutant relative to wild-type Gaussia luciferase without the signal peptide [4]	other results
mutant E1-G12: Gaussia luciferase combinatorial mutant encoded by SEQ ID NO: 42 (protein) MKPTENNEDLNILDIAKNFIETDLDADRGKLPGKKLPLEVLKEMEANARIAGCTRGCLICLSKIKCTLKMKKFIPGRCHTYEGDKSTGQGGIGPAIVDIPEIPGFKDMEPMEQFIAQVDLCEDCTTGCLKGLANVQCSDLLKKWLPQRCATFASKIQGQVDKIKGAGGD				measured value, CTZ ([1]; purified combinatorial mutant, substrate coelenterazine (CTZ)): 689624; measured value, ZS-26 ([2]; purified combinatorial mutant, substrate coelenterazine derivative ZS26): 31521; ratio of catalytic activities, ZS2/ZS26 ([2]; substrate specificity, ZS2 relative to ZS26): 12.73; ratio of catalytic activities, CTZ/ZS26 ([2]; substrate specificity, coelenterazine relative to ZS26): 21.87; ratio of catalytic activities, f-CTZ/ZS26 ([2]; substrate specificity, fluoro-coelenterazine relative to ZS26): 3.01; measured value, ZS-2 ([3]; purified combinatorial mutant, substrate coelenterazine derivative ZS2): 401271; ratios of catalytic activities on ZS2 relative to ZS26 ([3]; substrate specificity, FIG. 10, in words): significantly improved; measured value, f-CTZ ([4]; purified combinatorial mutant, substrate fluoro-coelenterazine (f-CTZ)): 94900
F26C N27D A30D A32V S33R A36T: Gaussia luciferase mutant (protein, SIGNAL (1)..(17), Gaussia luciferase mutant) MGVKVLFALICIAVAEAKPTENNEDCDIVDVVRNFTTTDLDADRGKLPGKKLPLEVLKEMEANARKAGCTRGCLICLSHIKCTPKMKKFIPGRCHTYEGDKESAQGGIGEAIVDIPEIPGFKDLEPMEQFIAQVDLCVDCTTGCLKGLANVQCSDLLKKWLPQRCATFASKIQGQVDKIKGAGGD	0.126	0.166	0.130	
F26C N27D A30V V31L A32G S33I A36V T37M L40G: Gaussia luciferase mutant (protein, SIGNAL (1)..(17), Gaussia luciferase mutant) MGVKVLFALICIAVAEAKPTENNEDCDIVVLGINFVMTDGDADRGKLPGKKLPLEVLKEMEANARKAGCTRGCLICLSHIKCTPKMKKFIPGRCHTYEGDKESAQGGIGEAIVDIPEIPGFKDLEPMEQFIAQVDLCVDCTTGCLKGLANVQCSDLLKKWLPQRCATFASKIQGQVDKIKGAGGD	0.054	0.086	0.065	
F26C N27D V29L A32V A36I T37A L40I: Gaussia luciferase mutant (protein, SIGNAL (1)..(17), Gaussia luciferase mutant) MGVKVLFALICIAVAEAKPTENNEDCDILAVVSNFIATDIDADRGKLPGKKLPLEVLKEMEANARKAGCTRGCLICLSHIKCTPKMKKFIPGRCHTYEGDKESAQGGIGEAIVDIPEIPGFKDLEPMEQFIAQVDLCVDCTTGCLKGLANVQCSDLLKKWLPQRCATFASKIQGQVDKIKGAGGD	0.203	0.166	0.141	
F26G N27D V29L A30V V31I A32G S33D A36W T37S: Gaussia luciferase mutant (protein, SIGNAL (1)..(17), Gaussia luciferase mutant) MGVKVLFALICIAVAEAKPTENNEDGDILVIGDNFWSTDLDADRGKLPGKKLPLEVLKEMEANARKAGCTRGCLICLSHIKCTPKMKKFIPGRCHTYEGDKESAQGGIGEAIVDIPEIPGFKDLEPMEQFIAQVDLCVDCTTGCLKGLANVQCSDLLKKWLPQRCATFASKIQGQVDKIKGAGGD	0.038	0.027	0.040	
F26G N27Y A30G V31L A32G S33L A36Y T37V L40E: Gaussia luciferase mutant (protein, SIGNAL (1)..(17), Gaussia luciferase mutant) MGVKVLFALICIAVAEAKPTENNEDGYIVGLGLNFYVTDEDADRGKLPGKKLPLEVLKEMEANARKAGCTRGCLICLSHIKCTPKMKKFIPGRCHTYEGDKESAQGGIGEAIVDIPEIPGFKDLEPMEQFIAQVDLCVDCTTGCLKGLANVQCSDLLKKWLPQRCATFASKIQGQVDKIKGAGGD	0.031	0.027	0.025	
F26G N27Y V29C A30V V31L S33G A36R T37A L40A: Gaussia luciferase mutant (protein, SIGNAL (1)..(17), Gaussia luciferase mutant) MGVKVLFALICIAVAEAKPTENNEDGYICVLAGNFRATDADADRGKLPGKKLPLEVLKEMEANARKAGCTRGCLICLSHIKCTPKMKKFIPGRCHTYEGDKESAQGGIGEAIVDIPEIPGFKDLEPMEQFIAQVDLCVDCTTGCLKGLANVQCSDLLKKWLPQRCATFASKIQGQVDKIKGAGGD	0.088	0.080	0.104	
F26I N27D V29A A30D V31I S33K A36N T37K L40P: Gaussia luciferase mutant (protein, SIGNAL (1)..(17), Gaussia luciferase mutant) MGVKVLFALICIAVAEAKPTENNEDIDIADIAKNFNKTDPDADRGKLPGKKLPLEVLKEMEANARKAGCTRGCLICLSHIKCTPKMKKFIPGRCHTYEGDKESAQGGIGEAIVDIPEIPGFKDLEPMEQFIAQVDLCVDCTTGCLKGLANVQCSDLLKKWLPQRCATFASKIQGQVDKIKGAGGD	0.016	0.026	0.080	
F26I V29A A30D A32V S33K T37E L40A: Gaussia luciferase mutant (protein, SIGNAL (1)..(17), Gaussia luciferase mutant) MGVKVLFALICIAVAEAKPTENNEDINIADVVKNFAETDADADRGKLPGKKLPLEVLKEMEANARKAGCTRGCLICLSHIKCTPKMKKFIPGRCHTYEGDKESAQGGIGEAIVDIPEIPGFKDLEPMEQFIAQVDLCVDCTTGCLKGLANVQCSDLLKKWLPQRCATFASKIQGQVDKIKGAGGD	1.470	1.231	0.583	
F26L N27H V29C V31I S33V A36Q T37S L40G: Gaussia luciferase mutant (protein, SIGNAL (1)..(17), Gaussia luciferase mutant) MGVKVLFALICIAVAEAKPTENNEDLHICAIAVNFQSTDGDADRGKLPGKKLPLEVLKEMEANARKAGCTRGCLICLSHIKCTPKMKKFIPGRCHTYEGDKESAQGGIGEAIVDIPEIPGFKDLEPMEQFIAQVDLCVDCTTGCLKGLANVQCSDLLKKWLPQRCATFASKIQGQVDKIKGAGGD	0.066	0.067	0.095	
F26L V29A V31I A32D S33R A36N T37E LA0P: Gaussia luciferase mutant (protein) MGVKVLFALICIAVAEAKPTENNEDLNIAAIDRNFNETDLDADRGKLPGKKLPLEVLKEMEANARKAGCTRGCLICLSHIKCTPKMKKFIPGRCHTYEGDKESAQGGIGEAIVDIPEIPGFKDLEPMEQFIAQVDLCVDCTTGCLKGLANVQCSDLLKKWLPQRCATFASKIQGQVDKIKGAGGD	0.406	0.385	0.402	
F26N V29S A30D S33D A36T T37A L40G: Gaussia luciferase mutant (protein, SIGNAL (1)..(17), Gaussia luciferase mutant) MGVKVLFALICIAVAEAKPTENNEDNNISDVADNFTATDGDADRGKLPGKKLPLEVLKEMEANARKAGCTRGCLICLSHIKCTPKMKKFIPGRCHTYEGDKESAQGGIGEAIVDIPEIPGFKDLEPMEQFIAQVDLCVDCTTGCLKGLANVQCSDLLKKWLPQRCATFASKIQGQVDKIKGAGGD	0.098	0.106	0.121	
